Legend:
Experiment in all cases: cell-based or functional assay
[1] = target: HIV-1 92UG005 envelope protein (Env) on pseudovirus (HIV-1)
[2] = target: HIV-1 93IN905 envelope protein (Env) on pseudovirus (HIV-1)
[3] = target: HIV-1 94UG103 envelope protein (Env) on pseudovirus (HIV-1)
[4] = target: HIV-1 Env of isolate 92UG046 (clade D) (HIV-1)
[5] = target: HIV-1 Env of isolate MGRM-D-013 (clade D) (HIV-1)
[6] = target: HIV-1 Env of isolate MGRM-D-021 (clade D) (HIV-1)
[7] = target: HIV-1 Env of isolate MGRM-D-022 (clade D) (HIV-1)
[8] = target: HIV-1 Env of isolate MGRM-D-029 (clade D) (HIV-1)
[9] = target: HIV-1 Env of isolate MGRM-G-017 (clade G pseudovirus) (HIV-1)
[10] = target: HIV-1 Env of isolate MGRM-G-028 (clade G pseudovirus) (HIV-1)
[11] = target: HIV-1 MGRM-A-008 envelope glycoprotein (Env) (HIV-1)
[12] = target: HIV-1 MGRM-A-014 envelope glycoprotein (Env) (HIV-1)
[13] = target: HIV-1 MGRM-C-001 Env (HIV-1)
[14] = target: HIV-1 MGRM-F1-014 Env (pseudovirus) (HIV-1)
[15] = target: HIV-1 MGRM-F1-018 Env (pseudovirus) (HIV-1)
[16] = target: HIV-1 Env of isolate 92WR021 (HIV-1)
[17] = target: HIV-1 Env of isolate 94KE105 (subtype AC), on pseudovirus (HIV-1)
[18] = target: HIV-1 Env of isolate APV-13 (pseudovirus) (HIV-1 isolate APV-13, subtype B)
[19] = target: HIV-1 Env of isolate CAAN.A2 (HIV-1)
[20] = target: HIV-1 Env of isolate CMU02 (CRF01_AE), on pseudovirus (HIV-1)
[21] = target: HIV-1 Env of isolate MGRM-A-008 (clade A), on pseudovirus (HIV-1)
[22] = target: HIV-1 Env of isolate MGRM-AG-011 (CRF_AG), on pseudovirus (HIV-1)
[23] = target: HIV-1 Env of isolate MGRM-C-015 (HIV-1)
[24] = target: HIV-1 Env of isolate MGRM-C-022 (HIV-1)
[25] = target: HIV-1 Env of isolate MGRM-C-023 (HIV-1)
[26] = target: HIV-1 Env of isolate MGRM-C-024 (HIV-1)
[27] = target: HIV-1 Env of isolate MGRM-D-012 (HIV-1)
[28] = target: HIV-1 Env of isolate MGRM-D-029 (subtype D), on pseudovirus (HIV-1)
[29] = target: HIV-1 Env of isolate SF162 (HIV-1) (UniProt P19550)
[30] = target: HIV-1 Env of isolate TRO.11 (HIV-1)
[31] = target: HIV-1 JR-CSF Env F468A (HIV-1 (isolate JR-CSF)) (UniProt P20871)
[32] = target: HIV-1 JR-CSF Env L179A (HIV-1 (isolate JR-CSF)) (UniProt P20871)
[33] = target: HIV-1 JR-CSF Env Y177A (HIV-1 (isolate JR-CSF)) (UniProt P20871)
[34] = target: HIV-1 MGRM-D-018 envelope glycoprotein (Env) on pseudovirus (HIV-1)

Chain of 1443_C16 (PG16) (TCN-116) (antibody) (VH): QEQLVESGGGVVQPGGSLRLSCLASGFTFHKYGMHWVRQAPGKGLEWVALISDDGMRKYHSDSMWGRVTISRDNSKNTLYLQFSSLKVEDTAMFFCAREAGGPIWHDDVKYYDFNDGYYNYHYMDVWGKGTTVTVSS
Chain of 1443_C16 (PG16) (TCN-116) (antibody) (VL): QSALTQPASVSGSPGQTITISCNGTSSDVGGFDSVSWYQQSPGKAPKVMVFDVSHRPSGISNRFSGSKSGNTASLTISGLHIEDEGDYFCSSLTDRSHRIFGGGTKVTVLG

Substance	neutralization IC50 [1]	neutralization IC50 [2]	neutralization IC50 [3]	IC50 (µg/ml), pseudovirus neutralization [4]	IC50 (µg/ml), pseudovirus neutralization [5]	IC50 (µg/ml), pseudovirus neutralization [6]	IC50 (µg/ml), pseudovirus neutralization [7]	IC50 (µg/ml), pseudovirus neutralization [8]	IC50 (µg/ml), pseudovirus neutralization [9]	IC50 (µg/ml), pseudovirus neutralization [10]	IC50 (µg/ml), pseudovirus neutralization [11]	IC50 (µg/ml), pseudovirus neutralization [12]	IC50 [13]	IC50 (µg/ml), pseudovirus neutralization [14]	IC50 (µg/ml), pseudovirus neutralization [15]	other results
b12 (antibody)	> 50 µg/mL	34.1 µg/mL	3.54 µg/mL	0.07 µg/mL	> 50 µg/mL	5.23 µg/mL	17.6 µg/mL	> 50 µg/mL	> 50 µg/mL	> 50 µg/mL	> 50 µg/mL	> 50 µg/mL	> 50 µg/mL	> 50 µg/mL	> 50 µg/mL	–
1495_C14 (PGC14) (antibody)	> 50 µg/mL	> 50 µg/mL	> 50 µg/mL	> 50 µg/mL	> 50 µg/mL	> 50 µg/mL	> 50 µg/mL	> 50 µg/mL	> 50 µg/mL	> 50 µg/mL	> 50 µg/mL	> 50 µg/mL	> 50 µg/mL	> 50 µg/mL	> 50 µg/mL	–
5147_N06 (PGT-130) (antibody)	–	–	–	–	–	–	–	–	–	–	–	–	–	–	–	neutralization IC50 [16]: 0.004 µg/mL; IC50, single-round pseudovirus neutralization [17]: 0.004 µg/mL; IC50 (µg/mL) neutralization [18]: 0.052 µg/mL; IC50 [19]: > 50 µg/mL; IC50, single-round pseudovirus neutralization [20]: > 50 µg/mL; IC50, single-round pseudovirus neutralization [21]: > 50 µg/mL; IC50, single-round pseudovirus neutralization [22]: > 50 µg/mL; IC50 [23]: 0.344 µg/mL; IC50 [24]: 0.127 µg/mL; IC50 [25]: 0.151 µg/mL; IC50 [26]: > 50 µg/mL; IC50 [27]: > 50 µg/mL; IC50, pseudovirus neutralization [28]: > 50 µg/mL; IC50 [29]: 0.007 µg/mL; IC50 [30]: 0.257 µg/mL; Fold IC50 increase relative to wild-type [31]: 0.4 fold; Fold IC50 increase relative to wild-type [32]: 2.4 fold; Fold IC50 increase relative to wild-type [33]: 3.6 fold; IC50 (ug/ml), neutralizing activity [34]: 0.0378 µg/mL
2F5 (antibody)	11.8 µg/mL	> 50 µg/mL	3.79 µg/mL	> 50 µg/mL	2.12 µg/mL	> 50 µg/mL	8.45 µg/mL	> 50 µg/mL	0.6 µg/mL	2.24 µg/mL	> 50 µg/mL	1.43 µg/mL	> 50 µg/mL	15.1 µg/mL	3.91 µg/mL	–
2G12 (antibody)	> 50 µg/mL	> 50 µg/mL	> 50 µg/mL	> 50 µg/mL	> 50 µg/mL	23 µg/mL	> 50 µg/mL	> 50 µg/mL	> 50 µg/mL	28.2 µg/mL	> 50 µg/mL	> 50 µg/mL	2.93 µg/mL	> 50 µg/mL	> 50 µg/mL	–
1443_C16 (PG16) (TCN-116) (antibody)	> 50 µg/mL	0.102 µg/mL	0.008 µg/mL	1.42 µg/mL	0.11 µg/mL	> 50 µg/mL	> 50 µg/mL	> 50 µg/mL	0.02 µg/mL	3.09 µg/mL	> 50 µg/mL	20.3 µg/mL	16.8 µg/mL	0.01 µg/mL	0.01 µg/mL	–
5114_A19 (PGT-128) (antibody)	–	–	–	–	–	–	–	–	–	–	–	–	–	–	–	neutralization IC50 [16]: 0.005 µg/mL; IC50, single-round pseudovirus neutralization [17]: 0.007 µg/mL; IC50 (µg/mL) neutralization [18]: 0.008 µg/mL; IC50 [19]: 1.48 µg/mL; IC50, single-round pseudovirus neutralization [20]: > 50 µg/mL; IC50, single-round pseudovirus neutralization [21]: > 50 µg/mL; IC50, single-round pseudovirus neutralization [22]: 3.93 µg/mL; IC50 [23]: 0.196 µg/mL; IC50 [24]: 0.042 µg/mL; IC50 [25]: 0.026 µg/mL; IC50 [26]: > 50 µg/mL; IC50 [27]: > 50 µg/mL; IC50, pseudovirus neutralization [28]: > 50 µg/mL; IC50 [29]: 0.007 µg/mL; IC50 [30]: 0.018 µg/mL; Fold IC50 increase relative to wild-type [31]: 0.5 fold; Fold IC50 increase relative to wild-type [32]: 2.8 fold; Fold IC50 increase relative to wild-type [33]: 1.4 fold
4E10 (antibody)	8.86 µg/mL	1.55 µg/mL	9.7 µg/mL	12.2 µg/mL	5.38 µg/mL	13.3 µg/mL	16.9 µg/mL	5.3 µg/mL	1.14 µg/mL	6.32 µg/mL	7.59 µg/mL	1.74 µg/mL	5.66 µg/mL	7.36 µg/mL	3.6 µg/mL	–

Reference: patent publication US20200024330A1
